Reference: patent US6083709

Key:
Assay in all cases: p53 two-site sandwich ELISA, sample tested at 100 ng/ml
[1] = molecular target: bInsulin (bovine (by the printed prefix b; not spelled out)) (UniProt P01317)
[2] = molecular target: hG-CSF (human (by the printed prefix h; not spelled out)) (UniProt P09919)
[3] = molecular target: hPDGF (human (by the printed prefix h; not spelled out))
[4] = molecular target: hTransferin (human (by the printed prefix h; not spelled out)) (UniProt P02787)
[5] = molecular target: hrGM-CSF (human (by the printed prefix hr; not spelled out)) (UniProt P04141)
[6] = molecular target: hrIGF-1 (human (by the printed prefix hr; not spelled out)) (UniProt P05019)
[7] = molecular target: hrIL-1α (human (by the printed prefix hr; not spelled out)) (UniProt P01583)
[8] = molecular target: hrIL-1β (human (by the printed prefix hr; not spelled out)) (UniProt P01584)
[9] = molecular target: hrIL-2 (human (by the printed prefix hr; not spelled out)) (UniProt P60568)
[10] = molecular target: hrIL-3 (human (by the printed prefix hr; not spelled out)) (UniProt P08700)
[11] = molecular target: hrIL-4 (human (by the printed prefix hr; not spelled out)) (UniProt P05112)
[12] = molecular target: hrIL-6 (human (by the printed prefix hr; not spelled out)) (UniProt P05231)
[13] = molecular target: hrTNFα (human (by the printed prefix hr; not spelled out)) (UniProt P01375)

Measured: Assay Results (apparent mutant p53 read in the p53 ELISA)

monoclonal antibody from clone PAb240
< 50 pg/mL: all assays above
